Reference: patent US20250213710A1 (PHENOMIC AI, published 2025)
Blank lines part the entries; values can stand above or below the molecule they belong to.

Key:
[1] = target: integrin αV on ovarian cancer cells (SKOV3) (human) (UniProt P06756); experiment: cell-based or functional assay
[2] = target: integrin β1 on ovarian cancer cells (SKOV3) (human) (UniProt P05556); experiment: cell-based or functional assay
[3] = target: recombinant human CTHRC1 (Collagen Triple Helix Repeat Containing 1) (human) (UniProt Q96CG8); experiment: binding EC50 on huCTHRC1 (assay not named)
[4] = target: recombinant human CTHRC1 (Collagen Triple Helix Repeat Containing 1) (human) (UniProt Q96CG8); experiment: cell-based or functional assay
[5] = target: T1, rat CTHRC1 (rat, UniProt Q8CG08 33-245, limits assumed); experiment: binding EC50 on rat CTHRC1 (assay not named)
[6] = target: T2, mouse CTHRC1 (mouse, UniProt Q9D1D6 33-245, limits assumed); experiment: binding EC50 on muCTHRC1 (assay not named)
T2 construct: also called muCTHRC1

[7] = target: T1, rat CTHRC1; experiment: assay not named (Table 2 EC50 columns show n/a)
[8] = target: T2, mouse CTHRC1; experiment: assay not named (Table 2 EC50 columns show n/a)

integrin β1 on ovarian cancer cells (SKOV3) (human), sequence (P05556 21-798): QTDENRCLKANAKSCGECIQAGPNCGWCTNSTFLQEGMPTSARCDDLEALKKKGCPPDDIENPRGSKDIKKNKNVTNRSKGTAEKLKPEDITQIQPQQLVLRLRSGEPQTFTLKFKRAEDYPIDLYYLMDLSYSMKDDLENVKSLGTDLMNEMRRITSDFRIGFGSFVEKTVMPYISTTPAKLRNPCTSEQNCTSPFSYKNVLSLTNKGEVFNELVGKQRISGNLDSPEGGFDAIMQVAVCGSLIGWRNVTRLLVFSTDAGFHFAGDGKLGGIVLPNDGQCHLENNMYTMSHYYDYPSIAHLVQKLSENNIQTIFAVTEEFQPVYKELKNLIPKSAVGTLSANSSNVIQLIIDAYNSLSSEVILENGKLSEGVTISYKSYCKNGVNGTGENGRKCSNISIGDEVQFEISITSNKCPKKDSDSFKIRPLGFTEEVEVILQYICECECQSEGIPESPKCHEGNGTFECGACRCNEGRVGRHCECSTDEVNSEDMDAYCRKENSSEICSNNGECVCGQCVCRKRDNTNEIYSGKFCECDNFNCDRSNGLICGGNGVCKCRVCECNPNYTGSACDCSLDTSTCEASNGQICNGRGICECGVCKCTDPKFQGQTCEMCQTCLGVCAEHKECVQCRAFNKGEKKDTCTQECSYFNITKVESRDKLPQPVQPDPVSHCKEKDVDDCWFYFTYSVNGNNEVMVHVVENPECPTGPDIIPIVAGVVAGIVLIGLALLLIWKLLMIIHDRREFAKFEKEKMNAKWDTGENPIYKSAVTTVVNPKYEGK
recombinant human CTHRC1 (Collagen Triple Helix Repeat Containing 1) (human), sequence (Q96CG8 31-243): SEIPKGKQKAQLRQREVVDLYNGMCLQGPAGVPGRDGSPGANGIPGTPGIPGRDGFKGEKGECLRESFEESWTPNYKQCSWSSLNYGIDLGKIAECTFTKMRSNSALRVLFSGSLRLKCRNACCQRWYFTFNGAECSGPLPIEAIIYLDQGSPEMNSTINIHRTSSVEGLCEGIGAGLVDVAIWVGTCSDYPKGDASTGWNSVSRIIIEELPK
integrin αV on ovarian cancer cells (SKOV3) (human), sequence (P06756 31-1048): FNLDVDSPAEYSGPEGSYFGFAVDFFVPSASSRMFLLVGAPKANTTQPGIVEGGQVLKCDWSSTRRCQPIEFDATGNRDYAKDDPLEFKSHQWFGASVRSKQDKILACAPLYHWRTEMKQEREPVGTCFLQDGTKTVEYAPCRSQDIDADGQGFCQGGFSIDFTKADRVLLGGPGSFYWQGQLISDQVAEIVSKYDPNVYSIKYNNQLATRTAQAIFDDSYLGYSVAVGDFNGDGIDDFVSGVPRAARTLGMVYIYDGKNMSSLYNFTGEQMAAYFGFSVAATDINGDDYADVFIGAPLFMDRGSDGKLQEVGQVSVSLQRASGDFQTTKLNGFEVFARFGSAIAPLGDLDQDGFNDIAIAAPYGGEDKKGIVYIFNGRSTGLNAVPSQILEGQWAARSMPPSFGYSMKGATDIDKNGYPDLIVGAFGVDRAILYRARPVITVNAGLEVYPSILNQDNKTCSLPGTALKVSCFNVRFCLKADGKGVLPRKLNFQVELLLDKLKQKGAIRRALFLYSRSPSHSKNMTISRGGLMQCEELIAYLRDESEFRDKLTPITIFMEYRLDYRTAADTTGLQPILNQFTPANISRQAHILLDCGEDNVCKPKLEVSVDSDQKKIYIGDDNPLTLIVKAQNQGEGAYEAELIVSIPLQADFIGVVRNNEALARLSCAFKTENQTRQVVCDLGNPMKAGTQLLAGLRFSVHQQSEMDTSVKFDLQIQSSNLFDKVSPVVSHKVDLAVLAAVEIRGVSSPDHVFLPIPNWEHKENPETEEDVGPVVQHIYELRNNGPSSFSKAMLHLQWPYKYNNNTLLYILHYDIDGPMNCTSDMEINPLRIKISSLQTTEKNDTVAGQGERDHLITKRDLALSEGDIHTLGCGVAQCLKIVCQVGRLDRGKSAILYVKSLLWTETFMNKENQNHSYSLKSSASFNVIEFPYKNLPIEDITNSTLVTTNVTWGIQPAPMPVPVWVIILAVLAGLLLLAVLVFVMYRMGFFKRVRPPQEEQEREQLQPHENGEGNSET
T1 sequence (Q8CG08 33-245 limits assumed): as the sequence (Q96CG8 31-243) above, with I3N, G6V, Q11L, L12I, M155L counted along it
T2 sequence (Q9D1D6 33-245 limits assumed): as the sequence (Q96CG8 31-243) above, with I3N, G6V, Q11L, L12I, M155L counted along it

Molecule: recombinant human CTHRC1 (Collagen Triple Helix Repeat Containing 1) (from UniProt Q96CG8 31-243)
cell adhesion of ovarian cancer cells to CTHRC1 after 1 hour with 100 nM integrin αV antibody [1]: 2 fold
cell adhesion of ovarian cancer cells to CTHRC1 after 1 hour with a combination of integrin β1 antibody and integrin αV antibody [1]: 2 fold
decrease in cell adhesion of ovarian cancer cells to CTHRC1 after 1 hour with 100 nM integrin αV antibody [1]: 40%
cell adhesion of ovarian cancer cells to CTHRC1 after 1 hour with 100 nM integrin β1 antibody [2]: 2 fold
cell adhesion of ovarian cancer cells to CTHRC1 after 1 hour with a combination of integrin β1 antibody and integrin αV antibody [2]: 2 fold
decrease in cell adhesion of ovarian cancer cells to CTHRC1 after 1 hour with 100 nM integrin β1 antibody [2]: 75%

B2: CTHRC1S-M11 (AB989) (antibody, V domains shown)
VH: QVTLRESGPALVKPTQTLTLTCTFSGFSLSTNVMCVSWIRQPPGKALEWLALIDWDDDKYYSTSLKTRLTISKDTSKNQVVLTMTNMDPVDTATYYCARTGITGTHYYYYYMDVWGKGTTVTVSS
VL: AIQMTQSPSSLSASVGDRVTITCRASQGIRNDLGWYQQKPGKAPKLLIYAASSLQSGVPSRFSGSGFGTDFTLTISSLQPEDFATYYCLQDYNYPWTFGQGTKVEIK
notes: Monoclonal antibody purified from a hybridoma of a humanized transgenic mouse; also called CTHRCIS-M11
binding result [7]: no binding
binding result [8]: no binding
EC50 [3]: 9.76 nM
blocking of cell adhesion to CTHRC1 (cell adhesion assay) [4]: > 50%

More lines, in order of falling EC50 [3], values ahead:

EC50 [3]: 1.85 nM
blocking of cell adhesion to CTHRC1 (cell adhesion assay) [4]: > 50%
EC50 [5]: 1.73 nM
EC50 [6]: 0.26 nM
B1: CTHRC1S-M5 (AB987) (antibody, V domains shown)
VH: EVQLVESGGGLVTPGGSLRLSCAASGFTFSTYSMNWVRQAPGKGLEWVSSISGSSGHIYYADSVRGRFTISRDNAKNSLYLQMNSLRAEDTAVYYCASMHYYYYLDVWGKGTTVTVSS
VL: QAVVTQESALTTSPGETVTLTCRSSTGTVTTSNYVTWVQEKPDHLFTGLIGATNNRAPGVPARFSGSLIGDKAALTITGAQTEDEAIYFCALWYSNHWVFGGGTKLTVL
notes: Monoclonal antibody purified from a hybridoma of a humanized transgenic mouse immunized with rhCTHRC1; also called CTHRCIS-M5; anti-CTHRC1 clone M5

EC50 [3]: 0.05 nM
EC50 [5]: 0.05 nM
EC50 [6]: 0.94 nM
B3: CTHRC1S-M14 (AB991) (antibody, V domains shown)
VH: EVQVVESGGGLVQPGGSLRLSCAASRFTFSNYWMSWVRQAPGRGLEWVANIKQDGSEKYYVDSVKGRFTISRDNAKNSLYLQMNSLRAEDTAVYYCAREGGYCSDTRCFFYMDVWGKGTTVTVSS
VL: DIQMTQSPSTLSASVGDRVTITCRASQSIISWLAWYQQKPGKAPKLLIYKASSLEGGVPSRFSGSGSGTDFTLTISSLQPDDFATYYCQQYNSYSRTFGQGTTVEIK
notes: Monoclonal antibody purified from a hybridoma of a humanized transgenic mouse; also called anti-CTHRC1 clone M14
